These results are taken from patent US20030145347A1.

What all share (experiment): cell-based or functional assay
Assay [1] deals with soybean thioredoxin as labelled in the 4th table (with or without S-tag not told) (soybean).
Assay [2] concerns the target wheat thioredoxin with S-tag (recombinant, expressed in E. coli from pNOV4114) (wheat (T. aestivium [sic])).
Assay [3] has as its target rice thioredoxin with S-tag (recombinant, expressed in E. coli from pNOV4113) (rice).

E. coli thioredoxin reductase (T-7915, Sigma, St. Louis, Mo.), sequence (P0A9P4 2-321 limits assumed): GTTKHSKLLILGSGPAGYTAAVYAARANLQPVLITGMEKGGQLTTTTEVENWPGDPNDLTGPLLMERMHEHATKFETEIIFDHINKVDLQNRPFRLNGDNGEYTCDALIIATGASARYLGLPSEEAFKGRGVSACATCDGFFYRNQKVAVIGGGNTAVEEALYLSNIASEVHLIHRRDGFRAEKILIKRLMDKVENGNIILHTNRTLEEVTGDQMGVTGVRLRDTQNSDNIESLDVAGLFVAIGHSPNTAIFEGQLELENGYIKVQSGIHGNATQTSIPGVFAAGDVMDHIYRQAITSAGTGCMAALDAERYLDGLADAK

For the substance “Arabidopsis NADPH thioredoxin reductase without S-tag (recombinant, expressed in E. coli from pNOV4115) (from UniProt Q39243 43-375) (enzyme)”, the change in A412 over 4 min, NADPH thioredoxin reductase DTNB assay; 30 ul (about 12 ug) soybean thioredoxin, 1.5 ul (about 0.5 ug) Arabidopsis reductase in assay [1] was found to be 0.42 A412. Also, in assay [2], the change in A412 over 4 min, NADPH thioredoxin reductase DTNB assay; 30 ul (about 0.6 ug) wheat thioredoxin, 1.5 ul (0.5 ug) Arabidopsis reductase is 0.08 A412 and the change in A412 over 4 min, NADPH thioredoxin reductase DTNB assay; 30 ul (about 1.2 ug) wheat thioredoxin, 1.5 ul (0.5 ug) Arabidopsis reductase worked out at 0.08 A412. Also, the change in A412 over 4 min, NADPH thioredoxin reductase DTNB assay; 30 ul (about 15 ug) rice thioredoxin, 1.5 ul (about 0.5 ug) Arabidopsis reductase in assay [3] was determined as 0.66 A412.
As to “E. coli thioredoxin reductase (T-7915, Sigma, St. Louis, Mo.) (from UniProt P0A9P4 2-321) (enzyme)”, in assay [1], the change in A412 over 4 min, NADPH thioredoxin reductase DTNB assay; 30 ul (about 6 ug) soybean thioredoxin, 2.3 ug E. coli reductase turned out to be 0.2 A412 and the change in A412 over 4 min, NADPH thioredoxin reductase DTNB assay; 30 ul (about 12 ug) soybean thioredoxin, 2.3 ug E. coli reductase came to 0.333 A412. Further, the change in A412 over 4 min, NADPH thioredoxin reductase DTNB assay; 30 ul (about 0.6 ug) wheat thioredoxin, 2.3 ug E. coli reductase in assay [2] was found to be 0.3 A412. The change in A412 over 4 min, NADPH thioredoxin reductase DTNB assay; 30 ul (about 15 ug) rice thioredoxin, 2.3 ug E. coli reductase in assay [3] was determined as 0.3 A412.
